Results: FireProtDB
Values joined by “and” are separate entries in the source; they are usually repeats but may differ in a detail not shown here. Equal entries are not always repeated.

Details: whole UniProt chain shown; for denaturant m value: Potassium phosphate 10 mM
[1] = Thermotoga maritima (strain ATCC 43589 / DSM 3109 / JCM 10099 / NBRC 100826 / MSB8), pH 6, 29 °C, Thermal, CD, sodium phosphate 50 mM, reversible: yes
[2] = Streptococcus phage Cp-1, pH 7, Thermal, DSC, phosphate 20 mM, reversible: no
[3] = Streptococcus phage Cp-1, pH 7, Thermal, DSC, phosphate 20 mM, transition: 3, reversible: no
[4] = Staphylococcus aureus, pH 7, Thermal, CD, NaPP 0.1 M, reversible: yes
[5] = Staphylococcus aureus, pH 7, Thermal, Fluorescence, NaPP 0.1 M, reversible: yes

B1: Chemotaxis protein CheY wild type, Q56312 (protein)
chain: MGKRVLIVDDAAFMRMMLKDIITKAGYEVAGEATNGREAVEKYKELKPDIVTMDITMPEMNGIDAIKEIMKIDPNAKIIVCSAMGQQAMVIEAIKAGAKDFIVKPFQPSRVVEALNKVSK
In the case of B1, the “heat capacity change of unfolding” value [1] is reported as 1.17 kcal/mol/K, the unfolding free energy [1] is reported as 9.54 kcal/mol and the Tm (Thermotoga maritima (strain ATCC 43589 / DSM 3109 / JCM 10099 / NBRC 100826 / MSB8), pH 6, Thermal, CD, sodium phosphate 50 mM, reversible: yes) is reported as 101 °C.

B2: Malate dehydrogenase, cytoplasmic wild type, P11708 (protein)
chain: MSEPIRVLVTGAAGQIAYSLLYSIGNGSVFGKDQPIILVLLDITPMMGVLDGVLMELQDCALPLLKDVIATDKEEIAFKDLDVAILVGSMPRRDGMERKDLLKANVKIFKCQGAALDKYAKKSVKVIVVGNPANTNCLTASKSAPSIPKENFSCLTRLDHNRAKAQIALKLGVTSDDVKNVIIWGNHSSTQYPDVNHAKVKLQAKEVGVYEAVKDDSWLKGEFITTVQQRGAAVIKARKLSSAMSAAKAICDHVRDIWFGTPEGEFVSMGIISDGNSYGVPDDLLYSFPVTIKDKTWKIVEGLPINDFSREKMDLTAKELAEEKETAFEFLSSA
In the case of B2, the unfolding free energy (Sus scrofa, pH 7.5, 25 °C, GdnHCl, Fluorescence, TEA 50 mM, MgCl2 20 mM, transition: 3) is reported as 5.9 kcal/mol and 6.4 kcal/mol.

B3: Lysozyme wild type, P15057 (protein)
chain: MVKKNDLFVDVSSHNGYDITGILEQMGTTNTIIKISESTTYLNPCLSAQVEQSNPIGFYHFARFGGDVAEAEREAQFFLDNVPMQVKYLVLDYEDDPSGDAQANTNACLRFMQMIADAGYKPIYYSYKPFTHDNVDYQQILAQFPNSLWIAGYGLNDGTANFEYFPSMDGIRWWQYSSNPFDKNIVLLDDEEDDKPKTAGTWKQDSKGWWFRRNNGSFPYNKWEKIGGVWYYFDSKGYCLTSEWLKDNEKWYYLKDNGAMATGWVLVGSEWYYMDDSGAMVTGWVKYKNNWYYMTNERGNMVSNEFIKSGKGWYFMNTNGELADNPSFTKEPDGLITVA
In the case of B3, the Tm [2] is reported as 42.9 °C, the “unfolding enthalpy (calorimetric)” value [2] is reported as 109 kcal/mol and the “unfolding enthalpy (van 't Hoff)” value [2] is reported as 232 kcal/mol. The Tm [3] was 43.5 °C, the “unfolding enthalpy (calorimetric)” value [3] was 143 kcal/mol and the “unfolding enthalpy (van 't Hoff)” value [3] was 100 kcal/mol.

B4: Subtilisin inhibitor wild type, P01006 (protein)
chain: MRNTGAGPSPSVSRPPPSAAPLSGAALAAPGDAPSALYAPSALVLTVGKGVSATTAAPERAVTLTCAPGPSGTHPAAGSACADLAAVGGDLNALTRGEDVMCPMVYDPVLLTVDGVWQGKRVSYERVFSNECEMNAHGSSVFAF
Work on B4 yielded a Tm (Streptomyces albogriseolus, pH 2.45, Thermal, CD, glycine 25 mM, reversible: yes) of 21.6 °C, a Tm (Streptomyces albogriseolus, pH 2.72, Thermal, CD, glycine 25 mM, reversible: yes) of 31.6 °C and a Tm (Streptomyces albogriseolus, pH 2.87, Thermal, CD, glycine 25 mM, reversible: yes) of 35.7 °C. For the same protein, the unfolding free energy (Streptomyces albogriseolus, pH 3.21, 20 °C, Thermal, CD, glycine 25 mM, reversible: yes) was 4.07 kcal/mol and the Tm (Streptomyces albogriseolus, pH 3.21, Thermal, CD, glycine 25 mM, reversible: yes) was 45.8 °C.

B5: Tryptophan synthase alpha chain wild type, P00929 (protein)
chain: MERYENLFAQLNDRREGAFVPFVTLGDPGIEQSLKIIDTLIDAGADALELGVPFSDPLADGPTIQNANLRAFAAGVTPAQCFEMLALIREKHPTIPIGLLMYANLVFNNGIDAFYARCEQVGVDSVLVADVPVEESAPFRQAALRHNIAPIFICPPNADDDLLRQVASYGRGYTYLLSRSGVTGAENRGALPLHHLIEKLKEYHAAPALQGFGISSPEQVSAAVRAGAAGAISGSAIVKIIEKNLASPKQMLAELRSFVSAMKAASRA
With B5 the unfolding free energy (Salmonella typhimurium (strain LT2 / SGSC1412 / ATCC 700720), pH 7, 25 °C, GdnHCl, CD, Potassium phosphate 0.01 M, reversible: yes) was 9.7 kcal/mol, the Tm (Salmonella typhimurium (strain LT2 / SGSC1412 / ATCC 700720), pH 7.8, Thermal, Enzyme activity, sodium N/N-bis(2-hydroxyethyl)glycine 0.05 M) was 46 °C and the Tm (Salmonella typhimurium (strain LT2 / SGSC1412 / ATCC 700720), pH 9, Thermal, DSC, Sodium tetraborate 1 mM, reversible: yes(>70%)) was 47.6 °C.

B6: Elongation factor Ts wild type, P43895 (protein)
chain: MSQMELIKKLREATGAGMMDVKRALEDAGWDEEKAVQLLRERGAMKAAKKADREAREGIIGHYIHHNQRVGVLVELNCETDFVARNELFQNLAKDLAMHIAMMNPRYVSAEEIPAEELEKERQIYIQAALNEGKPQQIAEKIAEGRLKKYLEEVVLLEQPFVKDDKVKVKELIQQAIAKIGENIVVRRFCRFELGA
Work on B6 yielded a Tm (Thermus thermophilus (strain ATCC 27634 / DSM 579 / HB8), pH 7, Thermal, CD, Phosphate 10 mM, reversible: No) of 115 °C.

B7: Dihydroneopterin aldolase wild type, P56740 (protein)
chain: MQDTIFLKGMRFYGYHGALSAENEIGQIFKVDVTLKVDLSEAGRTDNVIDTVHYGEVFEEVKSIMEGKAVNLLEHLAERIANRINSQYNRVMETKVRITKENPPIPGHYDGVGIEIVRENK
For B7, the Tm [4] was 42.5 °C, the “unfolding enthalpy (van 't Hoff)” value [4] was 141 kcal/mol and the Tm [5] was 43.5 °C. For the same protein, the “unfolding enthalpy (van 't Hoff)” value [5] was 151 kcal/mol.

B8: Dihydrofolate reductase wild type, Q60034 (protein)
chain: MAKVIFVLAMDVSGKIASSVESWSSFEDRKNFRKITTEIGNVVMGRITFEEIGRPLPERLNVVLTRRPKTSNNPSLVFFNGSPADVVKFLEGKGYERVAVIGGKTVFTEFLREKLVDELFVTVEPYVFGKGIPFFDEFEGYFPLKLLEMRRLNERGTLFLKYSVEKSHR
B8 gave a denaturant m value (Thermotoga maritima (strain ATCC 43589 / DSM 3109 / JCM 10099 / NBRC 100826 / MSB8), pH 7.8, 5 °C, GdnHCl, CD, reversible: yes) of 13.2 kcal/mol/M, a denaturant m value (Thermotoga maritima (strain ATCC 43589 / DSM 3109 / JCM 10099 / NBRC 100826 / MSB8), pH 7.8, 15 °C, GdnHCl, CD, reversible: yes) of 9.4 kcal/mol/M and a denaturant m value (Thermotoga maritima (strain ATCC 43589 / DSM 3109 / JCM 10099 / NBRC 100826 / MSB8), pH 7.8, 15 °C, Urea, CD, reversible: yes) of 4.71 kcal/mol/M. It also gave a denaturant m value (Thermotoga maritima (strain ATCC 43589 / DSM 3109 / JCM 10099 / NBRC 100826 / MSB8), pH 7.8, 25 °C, GdnHCl, CD, reversible: yes) of 7.15 kcal/mol/M, a denaturant m value (Thermotoga maritima (strain ATCC 43589 / DSM 3109 / JCM 10099 / NBRC 100826 / MSB8), pH 7.8, 37 °C, GdnHCl, CD, reversible: yes) of 5.98 kcal/mol/M and a denaturant m value (Thermotoga maritima (strain ATCC 43589 / DSM 3109 / JCM 10099 / NBRC 100826 / MSB8), pH 7.8, 55 °C, GdnHCl, CD, reversible: yes) of 6.24 kcal/mol/M. The denaturant m value (Thermotoga maritima (strain ATCC 43589 / DSM 3109 / JCM 10099 / NBRC 100826 / MSB8), pH 7.8, 70 °C, GdnHCl, CD, reversible: yes) was 7.56 kcal/mol/M.
